The values that follow come from paper PMC2064240 (The Journal of Cell Biology, 2006).

The assay deals with T1, GST-SV343-571 (bovine, UniProt O46385-2 343-571).
T1 sequence (looked up): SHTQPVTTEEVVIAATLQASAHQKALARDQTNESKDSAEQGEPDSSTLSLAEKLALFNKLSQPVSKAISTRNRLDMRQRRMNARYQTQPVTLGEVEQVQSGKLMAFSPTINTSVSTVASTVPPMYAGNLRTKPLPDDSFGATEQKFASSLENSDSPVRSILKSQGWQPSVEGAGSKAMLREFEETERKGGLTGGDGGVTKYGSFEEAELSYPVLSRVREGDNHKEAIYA
Briefly: pull-down.

B1: 6×His-tagged TRIP6 LIM domains (aa 265-476) (domain or fragment, human (HeLa cell cDNA library), UniProt Q15654-1 265-476, looked up)
chain: HDMNHPPSGEYFGQCGGCGEDVVGDGAGVVALDRVFHVGCFVCSTCRAQLRGQHFYAVERRAYCEGCYVATLEKCATCSQPILDRILRAMGKAYHPGCFTCVVCHRGLDGIPFTVDATSQIHCIEDFHRKFAPRCSVCGGAIMPEPGQEETVRIVALDRSFHIGCYKCEECGLLLSSEGECQGCYPLDGHILCKACSAWRIQELSATVTTDC
As to B1, the binding result is reported as “binds”.
